Here are results for three molecules from article PMC3510032.

Experiment [1] deals with GST-Shep isoform A (Drosophila (Oregon R)). Kind of experiment: pull-down; 2 µg GST or GST fusion protein immobilised on Glutathione-Agarose, 35 µg soluble His-Mod(mdg4)2.2 in 350 µL PBSMT (137 mM NaCl, 250 mM MgCl2, 0.3% Triton X-100, 1 mM DTT, 100 mg/mL BSA), 4°C, 2 h, 5 washes; bound protein detected by Western blotting. In general terms: In western blotting, separated proteins are transferred to a membrane and probed.

For experiment [2], the target named is GST-Shep isoform B/D (Drosophila (Oregon R)). The description is as above.
Experiment [3] addresses GST-Shep isoform E (Drosophila (Oregon R)). The description is as above.
The target of experiment [4] is Shep (endogenous, embryo nuclear extract) (Drosophila (endogenous in embryos)) (UniProt Q8MSV2). As to the kind of experiment: co-IP; embryo nuclear extracts in HBSMT, α-Shep or pre-immune serum pre-conjugated to protein A sepharose, 1 h at 4°C; Western blotting.
Experiment [5] deals with GST-Shep isoform A (Drosophila (Oregon R)). Kind of experiment: pull-down; GST or GST fusion protein immobilised on Glutathione-Agarose, soluble His-Su(Hw) in HBSM (50 mM HEPES pH 6.7, 150 mM NaCl, 5 mM KCl, 2.5 mM MgCl2) with 0.3% Triton-X 100, 0.2 M KCl, 1 mM DTT, 100 mg/mL BSA, 4°C, 2 h; bound protein detected by Western blotting.
Experiment [6] has as its target GST-Shep isoform B/D (Drosophila (Oregon R)). The experiment is described as above.
Experiment [7] addresses GST-Shep isoform E (Drosophila (Oregon R)). The description is as above.

As to His-Mod(mdg4)2.2 (natural protein), the stoichiometry N in experiment [1], in experiment [2] and in experiment [3] was 1 molar ratio each time.
Take “Mod(mdg4)2.2 (endogenous, embryo nuclear extract) (natural protein)”: the percent of total recovered in the IP in experiment [4] came to 0.1%.

B1: His-Su(Hw) (natural protein)
chain: MSASKEGKEKKGKLLGVENISPPKDKRPATRMKLLNDVGAGEDSEASTTTTTSRTPSNKQEKRGSVAGSRIKILNEEILGTPKTEKRGATKSTAPAASTVKILNEKKTPSATVTAVETTKIKTSPSKRKKMEHYVLQAVKSENTKADTTVTVVTEEDDTIDFILADDEEVVPGRIENNNGQEIVVTEDDEDLGEDGDEDGEDSSGKGNSSQTKIKEIVEHVCGKCYKTFRRVQSLKKHLEFCRYDSGYHLRKADMLKNLEKIEKDAVVMEKKDICFCCSESYDTFHLGHINCPDCPKSFKTQTSYERHIFITHSEFSDFPCSICNANLRSEALLALHEEQHKSRGKPYACKICGKDFTRSYHLKRHQKYSSCSSNETDTMSCKVCDRVFYRLDNLRSHLKQHLGTQVVKKPEYMCHTCKNCFYSLSTLNIHIRTHTGEKPFDCDLCDKKFSALVALKKHRRYHTGEKPYSCTVCNQAFAVKEVLNRHMKRHTGERPHKCDECGKSFIQATQLRTHSKTHIRPFPCEQCDEKFKTEKQLERHVKTHSRTKRPVFSCAECKRNFRTPALLKEHMDEGKHSPKQQRSSMRSAVKIMERTDCAICDKNFDSSDTLRRHIRTVHECDPDDIFGVEPHPSKRAKKDIESEEVVPVALNTSAGSLISSQTDGNGVVVREFLVDEGDGAAQTITLENETYTILPLDGAIEGEQLTDEAGVKPEAKKEEAQVSPVVKKEQRKSLAASLAAAIADNLEESCSEDDFSGEILTEEDIKLKENVGKLIDMLVDPPILKKYGWPNAPEETVLCKVIENCGHDLTKGGENYAELDYGSRMREYCKLLFTVVIHNDSIKSLLNNFPIDDVIEYVLGDEDQDEGGLDKDNESHSGDEEAVSVTGETKTNEIREKPEKKEVSAKSEKKEIVGKAVDKDNSEEVVRENKKKPVGEQEKA
For the molecule B1, the stoichiometry N in experiment [5], in experiment [6] and in experiment [7] was 1 molar ratio each time.

As a reminder, the stoichiometry N is a count of units in the complex or per binding partner.
